PMC5561266

Target: McpB ligand-binding domain (LBD) of Ralstonia pseudosolanacearum Ps29 (Ralstonia pseudosolanacearum Ps29)
Assay: AUC

McpB ligand-binding domain (LBD) of Ralstonia pseudosolanacearum Ps29 (domain or fragment)
stoichiometry N: 2
